{"source": "patent US10040829B2", "key": {"hASCT1 receptor (human)": {"target": "hASCT1 receptor (human) (UniProt P43007)", "assay": "in vivo binding in SCID mice grafted with XChASCT1 cells; anti-RGS His and anti-mouse FITC, IF reading"}, "[1]": {"target": "hASCT2 receptor (type 2 sodium-dependant neutral amino acid receptor-transporter) (human) (UniProt Q15758)", "assay": "in vivo binding in SCID mice grafted with XChASCT2 cells; anti-RGS His and anti-mouse FITC, IF reading"}}}
{"substance": "soluble HERV-W Env protein of Example 7 (293T cells transfected with the plasmid 460, envelope-spacer-His6)", "values": [{"measurement": "NF/NT, Mean (fluorescent cells out of 77 cells)", "setting": "hASCT1 receptor (human)", "value": 24}, {"measurement": "NF/NT, Mean (fluorescent cells out of 57 cells)", "setting": "[1]", "value": 23}]}
